Experimental data: US20050048603A1 (priority 2001, published 2005)

Key:
mycoAC204-443R376A = target: T1, mycoAC204-443R376A (Mycobacterium tuberculosis, UniProt P9WQ35 204-443)
T1 sequence: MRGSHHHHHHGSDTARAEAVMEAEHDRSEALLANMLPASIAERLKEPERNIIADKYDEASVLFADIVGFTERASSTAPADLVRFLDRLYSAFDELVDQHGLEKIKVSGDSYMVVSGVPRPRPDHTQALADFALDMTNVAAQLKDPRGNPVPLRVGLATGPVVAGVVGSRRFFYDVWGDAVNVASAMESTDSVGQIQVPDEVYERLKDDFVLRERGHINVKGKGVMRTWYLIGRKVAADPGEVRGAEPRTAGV

B1: mycoAC204-443 (protein)
chain: MRGSHHHHHHGSDTARAEAVMEAEHDRSEALLANMLPASIAERLKEPERNIIADKYDEASVLFADIVGFTERASSTAPADLVRFLDRLYSAFDELVDQHGLEKIKVSGDSYMVVSGVPRPRPDHTQALADFALDMTNVAAQLKDPRGNPVPLRVGLATGPVVAGVVGSRRFFYDVWGDAVNVASRMESTDSVGQIQVPDEVYERLKDDFVLRERGHINVKGKGVMRTWYLIGRKVAADPGEVRGAEPRTAGV
specific adenylyl cyclase activity against protein concentration (P9WQ35): From 50 to 300 nM it increased five-fold

B2: mycoAC204-443D300A (enzyme)
chain: MRGSHHHHHHGSDTARAEAVMEAEHDRSEALLANMLPASIAERLKEPERNIIADKYDEASVLFADIVGFTERASSTAPADLVRFLDRLYSAFDELVDQHGLEKIKVSGASYMVVSGVPRPRPDHTQALADFALDMTNVAAQLKDPRGNPVPLRVGLATGPVVAGVVGSRRFFYDVWGDAVNVASRMESTDSVGQIQVPDEVYERLKDDFVLRERGHINVKGKGVMRTWYLIGRKVAADPGEVRGAEPRTAGV
Kd (mycoAC204-443R376A): 2000 nM

B3: mycoAC204-443D256A (enzyme)
chain: MRGSHHHHHHGSDTARAEAVMEAEHDRSEALLANMLPASIAERLKEPERNIIADKYDEASVLFAAIVGFTERASSTAPADLVRFLDRLYSAFDELVDQHGLEKIKVSGDSYMVVSGVPRPRPDHTQALADFALDMTNVAAQLKDPRGNPVPLRVGLATGPVVAGVVGSRRFFYDVWGDAVNVASRMESTDSVGQIQVPDEVYERLKDDFVLRERGHINVKGKGVMRTWYLIGRKVAADPGEVRGAEPRTAGV
Kd (mycoAC204-443R376A): 2000 nM
